Reference: US20240209100A1 (DIAGONAL THERAPEUTICS, published 2024)

T1: IL-18 receptor (IL-18Rα/IL-18Rβ) on human PBMCs (human, UniProt Q13478 19-541; O95256 20-599)
T1 sequence 1: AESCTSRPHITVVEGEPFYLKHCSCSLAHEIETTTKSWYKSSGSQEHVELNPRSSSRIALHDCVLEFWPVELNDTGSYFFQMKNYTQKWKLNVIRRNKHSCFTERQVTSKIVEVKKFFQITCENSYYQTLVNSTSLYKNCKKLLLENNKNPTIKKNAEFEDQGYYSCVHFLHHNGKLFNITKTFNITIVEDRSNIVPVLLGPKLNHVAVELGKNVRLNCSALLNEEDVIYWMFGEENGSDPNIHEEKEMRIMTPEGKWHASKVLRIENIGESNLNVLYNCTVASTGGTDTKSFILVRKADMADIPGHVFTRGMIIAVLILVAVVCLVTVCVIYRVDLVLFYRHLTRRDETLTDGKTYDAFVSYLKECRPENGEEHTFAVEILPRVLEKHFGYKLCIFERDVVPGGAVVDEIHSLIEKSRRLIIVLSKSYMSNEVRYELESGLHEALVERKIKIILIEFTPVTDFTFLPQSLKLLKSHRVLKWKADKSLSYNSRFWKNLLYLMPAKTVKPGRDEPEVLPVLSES
T1 sequence 2: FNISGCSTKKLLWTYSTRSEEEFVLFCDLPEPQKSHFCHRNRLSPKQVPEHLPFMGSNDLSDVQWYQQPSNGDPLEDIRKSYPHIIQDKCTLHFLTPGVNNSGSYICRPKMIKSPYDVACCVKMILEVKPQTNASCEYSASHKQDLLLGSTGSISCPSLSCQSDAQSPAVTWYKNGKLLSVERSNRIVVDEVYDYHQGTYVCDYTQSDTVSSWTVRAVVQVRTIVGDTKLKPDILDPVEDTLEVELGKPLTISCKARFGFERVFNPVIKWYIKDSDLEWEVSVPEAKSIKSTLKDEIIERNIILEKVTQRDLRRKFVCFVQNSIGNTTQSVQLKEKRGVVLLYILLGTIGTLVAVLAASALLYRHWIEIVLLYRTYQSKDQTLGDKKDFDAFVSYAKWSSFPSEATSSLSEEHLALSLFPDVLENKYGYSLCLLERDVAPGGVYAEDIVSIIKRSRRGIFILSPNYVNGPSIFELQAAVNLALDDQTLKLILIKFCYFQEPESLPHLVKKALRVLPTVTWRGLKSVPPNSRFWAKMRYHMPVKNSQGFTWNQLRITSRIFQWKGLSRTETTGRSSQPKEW

T2: rhesus IL-18Rβ (rhesus, UniProt F7HHC1 20-356)
T2 construct: also called non-human primate IL-18Rβ
T2 sequence: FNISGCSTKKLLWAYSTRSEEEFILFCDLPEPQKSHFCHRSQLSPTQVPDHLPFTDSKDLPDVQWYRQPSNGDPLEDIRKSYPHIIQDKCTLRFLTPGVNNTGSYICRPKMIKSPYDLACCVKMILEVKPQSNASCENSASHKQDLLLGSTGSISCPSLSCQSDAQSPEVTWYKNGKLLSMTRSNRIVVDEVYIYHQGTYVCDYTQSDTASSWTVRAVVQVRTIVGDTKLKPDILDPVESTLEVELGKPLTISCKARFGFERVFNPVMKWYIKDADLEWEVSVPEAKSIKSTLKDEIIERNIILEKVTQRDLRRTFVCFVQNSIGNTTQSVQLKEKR

T3: human IL-18Rβ (human, UniProt O95256 20-356, limits assumed)
T3 construct: Monomeric antigen injected in SPR; also called IL-18R beta; IL-18Rb
T3 sequence: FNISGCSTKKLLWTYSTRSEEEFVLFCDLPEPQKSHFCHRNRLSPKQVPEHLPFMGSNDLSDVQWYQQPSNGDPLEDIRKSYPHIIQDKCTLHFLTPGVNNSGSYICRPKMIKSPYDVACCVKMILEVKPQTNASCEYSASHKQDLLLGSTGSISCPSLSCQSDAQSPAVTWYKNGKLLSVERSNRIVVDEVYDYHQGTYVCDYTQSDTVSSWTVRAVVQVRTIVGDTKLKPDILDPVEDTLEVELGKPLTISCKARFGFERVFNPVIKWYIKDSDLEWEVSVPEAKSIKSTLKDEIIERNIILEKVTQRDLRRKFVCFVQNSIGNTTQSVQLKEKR

T4: human IL-18Rα (human, UniProt Q13478 19-329, limits assumed)
T4 construct: Monomeric antigen injected in SPR; also called huIL18Ra; IL-18R alpha
T4 sequence: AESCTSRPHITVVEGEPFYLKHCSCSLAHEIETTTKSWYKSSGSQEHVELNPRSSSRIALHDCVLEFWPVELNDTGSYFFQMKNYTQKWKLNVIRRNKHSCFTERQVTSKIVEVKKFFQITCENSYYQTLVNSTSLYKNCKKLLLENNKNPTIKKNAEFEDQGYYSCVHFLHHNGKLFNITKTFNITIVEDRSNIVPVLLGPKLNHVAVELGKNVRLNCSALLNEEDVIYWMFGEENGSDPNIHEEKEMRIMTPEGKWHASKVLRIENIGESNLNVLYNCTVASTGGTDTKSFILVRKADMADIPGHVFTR

T5: cynomolgus IL-18Rα (cynomolgus, UniProt A0A2K5V3J9 19-328)
T5 construct: also called Cyno IL-18Rα; non-human primate IL-18Rα
T5 sequence: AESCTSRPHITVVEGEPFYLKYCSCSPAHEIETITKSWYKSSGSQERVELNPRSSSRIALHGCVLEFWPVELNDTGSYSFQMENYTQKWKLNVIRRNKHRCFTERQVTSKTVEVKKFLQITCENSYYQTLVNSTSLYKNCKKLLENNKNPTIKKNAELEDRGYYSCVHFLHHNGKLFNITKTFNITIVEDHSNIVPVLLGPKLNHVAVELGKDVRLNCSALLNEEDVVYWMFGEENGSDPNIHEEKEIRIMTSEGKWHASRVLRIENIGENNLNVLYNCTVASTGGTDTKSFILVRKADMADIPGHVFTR

T6: IL-18 receptor (IL-18Rα/IL-18Rβ) overexpressed on HEK-Blue IL-18 cells (Homo sapiens (Human), UniProt Q13478 19-541; O95256 20-599)
T6 sequence 1: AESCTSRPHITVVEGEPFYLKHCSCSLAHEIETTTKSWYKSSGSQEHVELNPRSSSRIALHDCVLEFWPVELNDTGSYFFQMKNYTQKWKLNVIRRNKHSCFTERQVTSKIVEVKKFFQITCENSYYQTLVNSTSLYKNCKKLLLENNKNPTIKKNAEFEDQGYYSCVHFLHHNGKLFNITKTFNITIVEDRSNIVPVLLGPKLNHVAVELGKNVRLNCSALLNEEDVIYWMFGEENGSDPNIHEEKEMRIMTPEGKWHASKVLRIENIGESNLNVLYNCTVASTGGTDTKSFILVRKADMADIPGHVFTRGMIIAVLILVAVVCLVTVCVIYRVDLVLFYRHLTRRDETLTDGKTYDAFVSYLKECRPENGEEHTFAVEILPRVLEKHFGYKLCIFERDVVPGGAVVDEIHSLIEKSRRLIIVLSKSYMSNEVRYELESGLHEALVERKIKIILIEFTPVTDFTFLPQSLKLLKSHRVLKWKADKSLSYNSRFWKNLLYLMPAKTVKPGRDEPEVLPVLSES
T6 sequence 2: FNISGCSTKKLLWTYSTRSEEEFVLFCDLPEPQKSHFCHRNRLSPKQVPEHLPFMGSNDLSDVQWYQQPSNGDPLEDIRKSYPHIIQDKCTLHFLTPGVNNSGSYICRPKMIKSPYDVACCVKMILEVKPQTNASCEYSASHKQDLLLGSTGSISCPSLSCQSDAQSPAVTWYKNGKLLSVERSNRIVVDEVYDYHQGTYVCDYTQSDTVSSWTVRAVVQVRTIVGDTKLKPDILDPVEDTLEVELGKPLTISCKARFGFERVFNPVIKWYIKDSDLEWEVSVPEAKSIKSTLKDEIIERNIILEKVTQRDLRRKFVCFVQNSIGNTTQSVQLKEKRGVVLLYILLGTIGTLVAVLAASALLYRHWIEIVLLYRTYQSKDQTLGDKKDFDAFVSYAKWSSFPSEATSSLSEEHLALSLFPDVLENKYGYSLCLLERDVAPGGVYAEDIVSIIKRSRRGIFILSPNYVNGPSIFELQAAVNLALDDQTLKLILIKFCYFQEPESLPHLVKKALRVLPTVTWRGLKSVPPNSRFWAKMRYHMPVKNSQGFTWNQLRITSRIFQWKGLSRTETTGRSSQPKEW


Tests used:
[1] = target: T1, IL-18 receptor (IL-18Rα/IL-18Rβ) on …; assay: cell-based or functional assay
[2] = target: T2, rhesus IL-18Rβ; assay: SPR (Carterra LSA), antibody captured on anti-human IgG-Fc, monomeric antigen as analyte, 25 C
Protocol: (§1) SPR experiments were performed using Carterra LSA equipped with an HC30M chip (Carterra-Bio). Binding assays were carried out at 25° C. with HBSTE (10 mM HEPES ph7.4, 150 mM NaCl, 3 mM EDTA, 0.05% Tween-20) with 0.5 g/L BSA. A density of anti-human IgG-Fc capture lawn was established on an HC30M chip using amine coupling. […] Coupling of goat anti-human IgG (H+L) multi-species SP ads-UNLB (Southern Biotech, 2087-01) with standard immobilization was done for 15 minutes in 10 mM sodium acetate pH 4.5 and quenched using 1M ethanolamine HCl PH8.5. The anti-human IgG-Fc capture surface was then used to capture a panel of antibodies at 20 μg/mL. Monomeric antigen for human IL-18Rα, human IL-18Rβ, cynomolgus IL-18Rα, or rhesus IL-18Rβ targeted by the antibodies was injected over the captured antibody array at 6 concentrations in 4-fold dilution series starting at 500 nM. Binding data was referenced and blanked from a buffer injected, then globally fit to a 1:1 Langmuir binding model for estimation of ka, kd, and KD using Carterra Kinetics Software.

[3] = target: T3, human IL-18Rβ; assay: as above
Protocol: as §1

[4] = target: T4, human IL-18Rα; assay: as above
Protocol: as §1

[5] = target: T5, cynomolgus IL-18Rα; assay: as above
Protocol: as §1

[6] = target: T6, IL-18 receptor (IL-18Rα/IL-18Rβ) …; assay: cell-based or functional assay
[7] = target: T6, IL-18 receptor (IL-18Rα/IL-18Rβ) …; assay: cell-based or functional assay; remark: listed apart in the source

| PBMC: calculated maximum induction of IFNγ after 24 hours, donor 1 [1] | PBMC: calculated maximum induction of IFNγ after 24 hours, donor 2 [1] | PBMC: calculated maximum induction of IFNγ after 24 hours, donor 3 [1] | PBMC: calculated maximum induction of IFNγ after 24 hours, donor 4 [1] | PBMC: calculated maximum induction of IFNγ after 24 hours, donor 5 [1] | PBMC: calculated maximum induction of IFNγ after 24 hours, donor 6 [1] | Kd [2] [nM] | Kd [3] [nM] | Kd [4] [nM] | Kd [5] [nM] | HEK-Blue IL-18: Abs 405 at 100 nM [6] [Abs] | HEK-Blue IL-18: Fold over Background [6] [fold] | EC50 (read off the curve), HEK Blue IL-18 SEAP reporter [7] [nM] | Binder |
| --- | --- | --- | --- | --- | --- | --- | --- | --- | --- | --- | --- | --- | --- |
| 13000 | 620 | 17000 | 9300 | 1500 | 1300 | 15 | 3.2 | 11 | 14 | 0.9 | 4.9 |  | DGL336 (bispecific antibody, V domains shown, humanized VHH-Fc heterodimer) V domain 1: EVQLLESGGGLVQPGGSLRLSCAASGRTFSKHAMGWFRQAPGKGLEFVSAIDWSGGSTYYADSVKGRFTISRDNSKNTVYLQMNSLRAEDTAVYYCAADSYTDYAQLWLPELESEYDYWGQGTLVTVSS V domain 2: EVQLVESGGGLIQPGGSLRLSCAASGSISSRDTMGWYRQAPGKGREMVSVISSSGNTNYADSVLGRFTISRDNAKNTVYLQMNALRAEDTAVYKCYAHRTYGVDYWGQGTLVTVSS |
| 16000 | 1300 | 22000 | 19000 | 15000 | 2400 |  | 14 | 8 | 10 | 1.87 | 10.1 | ~1 | DGL620 (bispecific antibody) heavy 1: EVQLLESGGGLVQPGGSLRLSCAASGRTFSKHAMGWFRQAPGKGLEFVSAIDWSGGSTYYADSVKGRFTISRDNSKNTVYLQMNSLRAEDTAVYYCAADSYTDYAQLWLPELESEYDYWGQGTLVTVSSCPPCPAPEAAGAPSVFLFPPKPKDTLYITREPEVTCVVVDVSHEDPEVKFNWYVDGVEVHNAKTKPREEQYNSTYRVVSVLTVLHQDWLNGKEYKCKVSNKALPAPIEKTISKAKGQPREPQVCTLPPSRDELTKNQVSLSCAVKGFYPSDIAVEWESNGQPENNYKTTPPVLDSDGSFFLVSKLTVDKSRWQQGNVFSCSVMHEALHNHYTQKSLSLSPG heavy 2: QLQLLESGGGLVQAGGSLRLSCAASRSITFSHNVMGWYRQAPGKGRELVSSIGSGGSTNYVDSVKGRFTISRDNSKKTLYLQMNSLRAEDTAVYYCGVVVGVYRGSLGQGTLVTVSSCPPCPAPEAAGAPSVFLFPPKPKDTLYITREPEVTCVVVDVSHEDPEVKFNWYVDGVEVHNAKTKPREEQYNSTYRVVSVLTVLHQDWLNGKEYKCKVSNKALPAPIEKTISKAKGQPREPQVYTLPPCRDELTKNQVSLWCLVKGFYPSDIAVEWESNGQPENNYKTTPPVLDSDGSFFLYSKLTVDKSRWQQGNVFSCSVMHEALHNHYTQKSLSLSPG |
| 16000 | 1700 | 22000 | 17000 | 15000 | 3000 | 10 | 2.2 | 60 | 900 | 1.34 | 7.2 |  | DGL346 (bispecific antibody, humanized) heavy 1: EVQLVESGGGLIQPGGSLRLSCAASGSISSRDTMGWYRQAPGKGREMVSVISSSGNTNYADSVLGRFTISRDNAKNTVYLQMNALRAEDTAVYKCYAHRTYGVDYWGQGTLVTVSSGGGSQVQLVESGGGLVQPGGSLRLSCAASGRTFSSYTMGWFRQAPGKGREFVSAISWSAGRTYYADSVKGRFTISRDNAKNTVYLQMNALRAEDTAVYYCAAEEAPDWAPIDCSGYGCLSLYDYWGQGTLVTVSDKTHTCPPCPAPEAAGAPSVFLFPPKPKDTLYITREPEVTCVVVDVSHEDPEVKFNWYVDGVEVHNAKTKPREEQYNSTYRVVSVLTVLHQDWLNGKEYKCKVSNKALPAPIEKTISKAKGQPREPQVCTLPPSRDELTKNQVSLSCAVKGFYPSDIAVEWESNGQPENNYKTTPPVLDSDGSFFLVSKLTVDKSRWQQGNVFSCSVMHEALHNHYTQKSLSLSPG heavy 2: DKTHTCPPCPAPEAAGAPSVFLFPPKPKDTLYITREPEVTCVVVDVSHEDPEVKFNWYVDGVEVHNAKTKPREEQYNSTYRVVSVLTVLHQDWLNGKEYKCKVSNKALPAPIEKTISKAKGQPREPQVYTLPPCRDELTKNQVSLWCLVKGFYPSDIAVEWESNGQPENNYKTTPPVLDSDGSFFLYSKLTVDKSRWQQGNVFSCSVMHEALHNHYTQKSLSLSPG |
